Target: T1, pkd2_human PKD2 (UniProt Q13563)
T1 sequence: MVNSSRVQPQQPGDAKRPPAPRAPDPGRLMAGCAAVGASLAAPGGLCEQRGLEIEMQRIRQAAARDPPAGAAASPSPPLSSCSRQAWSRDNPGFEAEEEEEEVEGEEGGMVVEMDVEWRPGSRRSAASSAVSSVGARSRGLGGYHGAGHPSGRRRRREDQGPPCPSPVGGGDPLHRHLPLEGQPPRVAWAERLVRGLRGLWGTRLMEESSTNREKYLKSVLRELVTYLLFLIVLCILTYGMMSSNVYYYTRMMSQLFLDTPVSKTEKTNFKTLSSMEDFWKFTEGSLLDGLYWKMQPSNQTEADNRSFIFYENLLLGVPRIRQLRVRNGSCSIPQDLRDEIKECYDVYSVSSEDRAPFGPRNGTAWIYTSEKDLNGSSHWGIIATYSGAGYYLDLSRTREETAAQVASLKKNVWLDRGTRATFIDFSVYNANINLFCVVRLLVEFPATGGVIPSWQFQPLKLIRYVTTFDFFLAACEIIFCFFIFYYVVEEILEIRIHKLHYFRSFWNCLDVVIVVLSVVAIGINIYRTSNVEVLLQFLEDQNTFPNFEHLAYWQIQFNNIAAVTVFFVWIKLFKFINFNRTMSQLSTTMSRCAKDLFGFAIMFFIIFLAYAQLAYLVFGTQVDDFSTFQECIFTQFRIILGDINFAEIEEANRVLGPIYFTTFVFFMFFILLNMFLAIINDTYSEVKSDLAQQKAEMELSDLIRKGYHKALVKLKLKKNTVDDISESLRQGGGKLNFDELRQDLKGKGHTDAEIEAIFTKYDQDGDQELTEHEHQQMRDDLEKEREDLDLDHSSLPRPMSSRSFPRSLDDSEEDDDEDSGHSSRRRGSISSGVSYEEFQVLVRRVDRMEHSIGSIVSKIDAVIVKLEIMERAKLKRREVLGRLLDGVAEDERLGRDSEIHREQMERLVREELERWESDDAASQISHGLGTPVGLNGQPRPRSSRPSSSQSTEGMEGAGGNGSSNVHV

Substance: Polycystin-1 (Homo sapiens) (from UniProt P98161) Q4225P
- effect of a mutation on the interaction: disrupting interaction
